Data taken from paper PMC11342335.

How the values were obtained:
Experiment in all cases: SPR; Biacore 8K, affinity determination of second-generation constructs; 30-100 RU of ABD035-containing constructs captured on immobilised HSA (CM5); 1-200 nM human sortilin injected 180 s at 30 µl/min, 25°C, PBST; 60 min dissociation; 1:1 Langmuir fit; apparent constants; n=3 technical replicates
[1] = biological target: ABD-A3-(G4S)3-PGRNC6* (His6-ABD035-G4S-A3-(G4S)3-PGRNC6*) (human) (UniProt P28799)
[2] = biological target: A3-ABD (His6-A3-G4S-ABD035)
[3] = biological target: ABD-A3-(G4S)3-PGRNC3 (His6-ABD035-G4S-A3-(G4S)3-PGRNC3) (human)
[4] = biological target: ABD-A3-(G4S)3-NTC3 (His6-ABD035-G4S-A3-(G4S)3-NTC3)

Sequence of human sortilin (R&D Systems, 3154-ST) (Q99523 78-755): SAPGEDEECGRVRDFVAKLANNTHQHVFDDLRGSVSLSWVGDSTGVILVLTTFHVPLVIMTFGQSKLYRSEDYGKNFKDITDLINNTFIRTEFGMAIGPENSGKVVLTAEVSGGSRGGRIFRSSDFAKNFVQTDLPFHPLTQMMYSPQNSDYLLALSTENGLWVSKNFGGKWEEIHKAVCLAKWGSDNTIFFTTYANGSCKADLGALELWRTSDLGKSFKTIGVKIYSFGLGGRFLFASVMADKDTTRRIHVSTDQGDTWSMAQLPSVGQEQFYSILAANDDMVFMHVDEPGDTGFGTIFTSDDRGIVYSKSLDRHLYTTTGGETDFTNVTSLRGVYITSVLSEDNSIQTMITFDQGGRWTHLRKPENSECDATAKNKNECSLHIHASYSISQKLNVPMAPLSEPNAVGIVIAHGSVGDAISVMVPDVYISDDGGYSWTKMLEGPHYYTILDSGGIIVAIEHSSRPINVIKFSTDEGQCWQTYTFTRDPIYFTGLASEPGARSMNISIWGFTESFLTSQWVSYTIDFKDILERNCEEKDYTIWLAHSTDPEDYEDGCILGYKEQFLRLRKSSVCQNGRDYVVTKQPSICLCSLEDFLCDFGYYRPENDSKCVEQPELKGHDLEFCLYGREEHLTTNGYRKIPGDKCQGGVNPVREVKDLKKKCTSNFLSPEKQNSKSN

human sortilin (R&D Systems, 3154-ST) (from UniProt Q99523 78-755) (receptor)
Kd [1]: 319 pM
Kd [2]: 70400 pM
Kd [3]: 310 pM
Kd [4]: 303 pM
